Experimental data reported in US11078465B2, “Alcohol dehydrogenase mutant and application thereof in synthesis of diaryl chiral alcohols” (Jiangnan University, priority 2018, dated 2021).

How the values were obtained:
Assay type in all cases: biochemical
[1] = Kinetic analysis of alcohol dehydrogenase and mutants (NADPH oxidation, 340 nm, double reciprocal curve); conditions: substrate CPMK
Outline: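 His-tagged recombinant KpADH (wild type or mutant) purified by nickel affinity, desalted into Tris-HCl pH 7.0. Activity measured at 30° C in 100 mM sodium phosphate pH 7.0 with 1.0 mM NADPH and 1.0 mM CPMK by 340 nm NADPH absorbance decrease; kinetic parameters from double reciprocal plots over varied substrate and coenzyme concentrations.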

[2] = Stereoselectivity (ee) of CPMK reduction, chiral liquid chromatography
Outline: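 ee is calculated from the (S)-CPMA and (R)-CPMA molar concentrations measured by chiral liquid chromatography; conversion also by GC. Samples are ethyl acetate extracts of the reaction, dried and redissolved in ethanol.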

[3] = Substrate specificity, specific activity
Outline: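 Alcohol dehydrogenase mutants were assayed with 1.0 mM NADPH and 1.0 mM ketone substrate (CPMK or other prochiral carbonyls) in 100 mM sodium phosphate, pH 7.0, at 30° C. NADPH oxidation was followed at 340 nm; one U oxidizes 1 μmol NADPH per min (ε 6220).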

[4] = Stereoselectivity on different substrates; conditions: for Stereoselectivity (ee): configuration in brackets
Outline: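 Alcohol dehydrogenase mutants reduced prochiral ketones, including CPMK, aryl pyridyl and diaryl ketones, acetophenones and keto esters. Reactions were extracted into ethyl acetate and redissolved in ethanol. Conversion and ee were determined by chiral liquid and gas chromatography, with ee calculated from (S)- and (R)-CPMA molar concentrations.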

[5] = Stereoselectivity on different substrates; conditions: configuration in brackets
Outline: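 Reaction mixture extracted with ethyl acetate, dried organic phase redissolved in ethanol, then analysed by chiral liquid chromatography and gas chromatography. Values are transformation rate and ee, with ee from LC molar concentrations of (S)- and (R)-CPMA. Substrates were prochiral ketones reduced by alcohol dehydrogenase mutants.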

[6] = Asymmetric reduction in 20 mL biocatalytic system, conversion
Experimental: In an embodiment of the present disclosure, a chromatographic analysis method is as follows: 100 μL of reactant liquid is taken, 500 μL of ethyl acetate is added, shaking is performed for 1-2 min, centrifugation is performed at 12,000 rpm for 2-5 min, supernatant liquid is taken into a centrifuge tube, after an organic phase naturally volatilizes completely, 500 μL of chromatographically pure ethanol is added, and chiral liquid chromatography and gas chromatography are performed to analyze the transformation rate and the ee value.
The pure (R)-CPMA were recrystallized from ethyl acetate at 4° C. and gave 99.9% optical purity. […] Besides, the conversion cannot reach 100% with 24 h in the asymmetric reduction of (4-bromophenyl)-(phenyl)-methanone and p-nitrobenzophenone due to the low enzyme activity.

B1: E214I/S237A: isoleucine for glutamate at position 214 and alanine for serine at position 237 of SEQ ID No. 2 (protein)
chain: MSVLISGASGYIAKHIVRVLLEQNYKVIGTVRSQDKADKLLKQYNNPNLSYEIVPEIANLDAFDDIFKKHGKEIKYVIHAASPVNFGAKDLEKDLVIPAINGTKNMFEAIKKYAPDTVERVVMTASYASIMTPHRQNDPTLTLDEETWNPVTEENAYENVFTAYCASKTFAEKEAWKFVKENSDAVKFKLTTIHPSFVFGPQNFDEDVTKKLNITCEIINGLLHAPFDTKVEKTHFAQFIDVRDVAKTHVLGFQKDELINQRLLLCNGAFSQQDIVNVFNEDFPELKGQFPPEDKDTDLNKGVTGCKIDNEKTKKLLAFEFTPFHKTIHDTVYQILHKEGRV
modifications: Protein translated from synthetic DNA
**Q.** With B1 as the molecule, how does the Kcat [1] read?
**A.** 12.06 ± 0.52 s⁻¹

**Q.** And the Km [1]?
**A.** 470 ± 50 µM

**Q.** What about the Vmax [1] of the same molecule?
**A.** 18.09 ± 0.78 µM/min/mg

**Q.** What about the “ee value, (R)-CPMA” value ([2]; R configuration product, listed as E2141/S237A) of the same molecule?
**A.** 98.3%

**Q.** What about the e.e. ([2]; product configuration in brackets) of the same molecule?
**A.** 98.3 (R)

**Q.** What about the specific activity ([3]; substrate [drawing 1]) of the same molecule?
**A.** 0.09 U/mg

**Q.** What about the specific activity ([3]; substrate [drawing 2]) of the same molecule?
**A.** 0.08 U/mg

**Q.** What about the specific activity ([3]; substrate [drawing 3]) of the same molecule?
**A.** 1.42 U/mg

**Q.** And the specific activity ([3]; substrate [drawing 4])?
**A.** 2.94 U/mg

**Q.** What about the specific activity ([3]; substrate [drawing 5]) of the same molecule?
**A.** 12.38 U/mg

**Q.** And the specific activity ([3]; substrate [drawing 6], 4-chlorophenacyl chloride)?
**A.** 30.09 U/mg

**Q.** And the specific activity ([3]; substrate [drawing 7])?
**A.** 21.73 U/mg

**Q.** What about the specific activity ([3]; substrate [drawing 8]) of the same molecule?
**A.** 30.28 U/mg

**Q.** And the specific activity ([3]; substrate [drawing 9], ethyl 4-chloro-3-oxobutanoate)?
**A.** 5.58 U/mg

**Q.** And the ee ([4]; substrate 4-chloroacetophenone, (R))?
**A.** 99.4%

**Q.** What about the “Stereoselectivity (ee)” value ([4]; substrate [drawing 10], acetophenone) of the same molecule?
**A.** 9.69 (R)

**Q.** What about the “Stereoselectivity (ee)” value ([4]; substrate [drawing 11], 4-chloroacetophenone) of the same molecule?
**A.** 99.4 (R)

**Q.** And the “Stereoselectivity (ee)” value ([4]; substrate [drawing 12], 4-chlorobenzoyl chloride)?
**A.** 76.4 (R)

**Q.** What about the “Stereoselectivity (ee)” value ([4]; substrate [drawing 16], (4-bromophenyl)-(phenyl)-methanone) of the same molecule?
**A.** 93.4 (S)

**Q.** And the “Stereoselectivity (ee)” value ([4]; substrate [drawing 17], p-nitrobenzophenone)?
**A.** 86.5 (S)

**Q.** And the “Stereoselectivity (ee)” value ([5]; substrate [drawing 13])?
**A.** 36.8 (R)

**Q.** And the “Stereoselectivity (ee)” value ([5]; substrate [drawing 14], likely CPMK (values partly match Table 4))?
**A.** 98.4 (R)

**Q.** And the “Stereoselectivity (ee)” value ([5]; substrate [drawing 15])?
**A.** 52.6 (S)

**Q.** What about the “Stereoselectivity (ee)” value ([5]; substrate [drawing 18]) of the same molecule?
**A.** 81.8 (S)

**Q.** And the Conversion rate ([6]; 4-chloroacetophenone 100 mM, 1 h)?
**A.** 59%

**Q.** And the Conversion rate ([6]; 4-chloroacetophenone 100 mM, 2 h)?
**A.** 72%

**Q.** And the Conversion rate ([6]; 4-chloroacetophenone 100 mM, 3 h)?
**A.** 89%

**Q.** And the Conversion rate ([6]; 4-chloroacetophenone 100 mM, 4 h)?
**A.** 85%

**Q.** What about the Conversion rate ([6]; 4-chloroacetophenone 100 mM, 6 h) of the same molecule?
**A.** 97.6%

**Q.** What about the Conversion rate ([6]; 4-chloroacetophenone 100 mM, 8 h) of the same molecule?
**A.** 99.8%

**Q.** And the Conversion rate ([6]; 4-chloroacetophenone 100 mM, 12 h)?
**A.** >99.9%

**Q.** And the Conversion rate ([6]; 4-chloroacetophenone 100 mM, 24 h)?
**A.** >99.9%

**Q.** What about the Conversion rate ([6]; 4-chloroacetophenone 200 mM, 1 h) of the same molecule?
**A.** 40%

**Q.** What about the Conversion rate ([6]; 4-chloroacetophenone 200 mM, 2 h) of the same molecule?
**A.** 52.4%

**Q.** What about the Conversion rate ([6]; 4-chloroacetophenone 200 mM, 3 h) of the same molecule?
**A.** 69.5%

**Q.** And the Conversion rate ([6]; 4-chloroacetophenone 200 mM, 4 h)?
**A.** 76.9%

**Q.** And the Conversion rate ([6]; 4-chloroacetophenone 200 mM, 6 h)?
**A.** 88.6%

**Q.** And the Conversion rate ([6]; 4-chloroacetophenone 200 mM, 8 h)?
**A.** 95.6%

**Q.** And the Conversion rate ([6]; 4-chloroacetophenone 200 mM, 12 h)?
**A.** 99.2%

**Q.** And the Conversion rate ([6]; 4-chloroacetophenone 200 mM, 24 h)?
**A.** 99.7%

**Q.** What about the Conversion rate ([6]; 4-chloroacetophenone 500 mM, 1 h) of the same molecule?
**A.** 28.5%

**Q.** And the Conversion rate ([6]; 4-chloroacetophenone 500 mM, 2 h)?
**A.** 38.9%

**Q.** And the Conversion rate ([6]; 4-chloroacetophenone 500 mM, 3 h)?
**A.** 50.0%

**Q.** What about the Conversion rate ([6]; 4-chloroacetophenone 500 mM, 4 h) of the same molecule?
**A.** 64.2%

**Q.** What about the Conversion rate ([6]; 4-chloroacetophenone 500 mM, 6 h) of the same molecule?
**A.** 80.9%

**Q.** And the Conversion rate ([6]; 4-chloroacetophenone 500 mM, 8 h)?
**A.** 90.2%

**Q.** And the Conversion rate ([6]; 4-chloroacetophenone 500 mM, 12 h)?
**A.** 94.9%

**Q.** What about the Conversion rate ([6]; 4-chloroacetophenone 500 mM, 24 h) of the same molecule?
**A.** 99.2%
